Test [1] addresses LuS-N71-SpyTag (Aquifex aeolicus). In words: SDS-PAGE of the covalent conjugate, band intensities; conjugated product or conjugation mixture on SDS-PAGE with DTT; band intensity and molecular weight used to work out the molar share of conjugated nanoparticle subunit.
For test [2], the target named is ferritin-N96-SpyTag (Helicobacter pylori). The test is described as above.

For PIV3 F-SpyCatcher, the percent of nanoparticle subunit conjugated in test [1] was 68%. Turning to RSV F-SpyCatcher, the percent of nanoparticle subunit conjugated was 85% in test [2] and 67% in test [1].

The record behind these values is publication PMC7584627.
